Source: US20140087995A1 (published 2014)
Numbered stars: 1 amine (or outer) side, 2 acyl side, 3 side chain; on linkers, the order of the positions; unused ones are H or OH. Bridge positions count the residues as written; N and C are the ends. Side chains are listed from the residue outwards. Ends that are not written are not given here. * marks the point of attachment. C20 diacid = O=C(O)CCCCCCCCCCCCCCCCCCC(=O)*; γGlu = O=C(O)[C@H](CCC(=O)[*:2])N[*:1]

B1: N^ε1-[(4S)-4-carboxy-4-(19-carboxynonadecanoylamino)butanoyl]-[Arg14,Arg17,Pro21,Pro27]-h-amylin (peptide)
peptide: K([γGlu-C20 diacid])CNTATCATQRLARFLRHSSPNFGAIPSSTNVGSNTY-NH2
modifications: disulfide 2-7; N-terminus assumed
SMILES: CC[C@H](C)[C@H](NC(=O)[C@H](C)NC(=O)CNC(=O)[C@H](Cc1ccccc1)NC(=O)[C@H](CC(N)=O)NC(=O)[C@@H]1CCCN1C(=O)[C@H](CO)NC(=O)[C@H](CO)NC(=O)[C@H](Cc1c[nH]cn1)NC(=O)[C@H](CCCNC(=N)N)NC(=O)[C@H](CC(C)C)NC(=O)[C@H](Cc1ccccc1)NC(=O)[C@H](CCCNC(=N)N)NC(=O)[C@H](C)NC(=O)[C@H](CC(C)C)NC(=O)[C@H](CCCNC(=N)N)NC(=O)[C@H](CCC(N)=O)NC(=O)[C@@H](NC(=O)[C@H](C)NC(=O)[C@@H]1CSSC[C@H](NC(=O)[C@@H](N)CCCCNC(=O)CC[C@H](NC(=O)CCCCCCCCCCCCCCCCCCC(=O)O)C(=O)O)C(=O)N[C@@H](CC(N)=O)C(=O)N[C@@H]([C@@H](C)O)C(=O)N[C@@H](C)C(=O)N[C@@H]([C@@H](C)O)C(=O)N1)[C@@H](C)O)C(=O)N1CCC[C@H]1C(=O)N[C@@H](CO)C(=O)N[C@@H](CO)C(=O)N[C@H](C(=O)N[C@@H](CC(N)=O)C(=O)N[C@H](C(=O)NCC(=O)N[C@@H](CO)C(=O)N[C@@H](CC(N)=O)C(=O)N[C@H](C(=O)N[C@@H](Cc1ccc(O)cc1)C(N)=O)[C@@H](C)O)C(C)C)[C@@H](C)O
notes: Analogue of human amylin; disulfide and C-terminal amide as told for h-amylin; also called compound 83
B2: N^ε1-[(4S)-4-carboxy-4-(19-carboxynonadecanoylamino)butanoyl]-[Arg17,Pro21,Pro27,Arg34]-h-amylin (peptide)
peptide: K([γGlu-C20 diacid])CNTATCATQRLANFLRHSSPNFGAIPSSTNVGRNTY-NH2
modifications: disulfide 2-7; N-terminus assumed
SMILES: CC[C@H](C)[C@H](NC(=O)[C@H](C)NC(=O)CNC(=O)[C@H](Cc1ccccc1)NC(=O)[C@H](CC(N)=O)NC(=O)[C@@H]1CCCN1C(=O)[C@H](CO)NC(=O)[C@H](CO)NC(=O)[C@H](Cc1c[nH]cn1)NC(=O)[C@H](CCCNC(=N)N)NC(=O)[C@H](CC(C)C)NC(=O)[C@H](Cc1ccccc1)NC(=O)[C@H](CC(N)=O)NC(=O)[C@H](C)NC(=O)[C@H](CC(C)C)NC(=O)[C@H](CCCNC(=N)N)NC(=O)[C@H](CCC(N)=O)NC(=O)[C@@H](NC(=O)[C@H](C)NC(=O)[C@@H]1CSSC[C@H](NC(=O)[C@@H](N)CCCCNC(=O)CC[C@H](NC(=O)CCCCCCCCCCCCCCCCCCC(=O)O)C(=O)O)C(=O)N[C@@H](CC(N)=O)C(=O)N[C@@H]([C@@H](C)O)C(=O)N[C@@H](C)C(=O)N[C@@H]([C@@H](C)O)C(=O)N1)[C@@H](C)O)C(=O)N1CCC[C@H]1C(=O)N[C@@H](CO)C(=O)N[C@@H](CO)C(=O)N[C@H](C(=O)N[C@@H](CC(N)=O)C(=O)N[C@H](C(=O)NCC(=O)N[C@@H](CCCNC(=N)N)C(=O)N[C@@H](CC(N)=O)C(=O)N[C@H](C(=O)N[C@@H](Cc1ccc(O)cc1)C(N)=O)[C@@H](C)O)C(C)C)[C@@H](C)O
notes: Analogue of human amylin; disulfide and C-terminal amide as told for h-amylin; also called compound 79

Columns and labels:
rat calcitonin receptor [1] = target: T1, rat calcitonin receptor (rat, UniProt P32214 25-516); test: SPA competition with 125I-calcitonin, membranes with rat calcitonin receptor (Assay VIII)
T1 construct: whole, on cells; Used as membranes prepared from the transfected cells; also called rCTR; rCT
T1 sequence (looked up): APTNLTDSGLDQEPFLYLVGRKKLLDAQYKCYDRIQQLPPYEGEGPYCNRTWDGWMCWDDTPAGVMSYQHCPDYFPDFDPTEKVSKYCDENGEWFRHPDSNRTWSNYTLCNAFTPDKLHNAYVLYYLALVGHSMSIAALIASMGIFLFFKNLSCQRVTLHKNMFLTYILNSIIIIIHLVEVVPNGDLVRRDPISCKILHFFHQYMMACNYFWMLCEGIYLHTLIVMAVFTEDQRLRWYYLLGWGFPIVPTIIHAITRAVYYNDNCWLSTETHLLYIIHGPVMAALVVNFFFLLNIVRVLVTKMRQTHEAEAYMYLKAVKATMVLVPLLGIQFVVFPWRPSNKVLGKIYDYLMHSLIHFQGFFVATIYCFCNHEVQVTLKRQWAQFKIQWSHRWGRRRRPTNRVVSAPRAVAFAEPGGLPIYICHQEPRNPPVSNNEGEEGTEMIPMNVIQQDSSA

[2] = target: T2, human calcitonin receptor (human, UniProt P30988 25-474); test: ratio of binding IC50 at human calcitonin receptor to IC50 at human amylin receptor (reference)
T2 construct: whole, on cells; Used as membranes prepared from the transfected cells; also called hCTR; hCT
T2 sequence (looked up): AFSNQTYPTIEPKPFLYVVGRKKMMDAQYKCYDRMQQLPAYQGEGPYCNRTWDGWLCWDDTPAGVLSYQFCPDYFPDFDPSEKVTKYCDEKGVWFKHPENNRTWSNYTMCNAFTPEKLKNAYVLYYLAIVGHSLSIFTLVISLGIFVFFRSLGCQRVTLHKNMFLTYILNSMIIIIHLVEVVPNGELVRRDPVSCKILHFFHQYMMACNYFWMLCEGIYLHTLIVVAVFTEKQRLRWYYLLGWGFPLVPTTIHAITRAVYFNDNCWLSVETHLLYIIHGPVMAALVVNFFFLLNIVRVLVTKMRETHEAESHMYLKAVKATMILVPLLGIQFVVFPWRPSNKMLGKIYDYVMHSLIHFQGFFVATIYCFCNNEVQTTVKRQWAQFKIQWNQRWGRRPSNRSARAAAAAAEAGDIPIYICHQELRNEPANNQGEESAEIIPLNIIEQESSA
Procedure, shortened: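 IC₅₀ values were derived by one-site competition analysis of SPA counts. Cell membranes (35 ng/μL) with SPA beads were incubated with test compounds for 120 min at 25° C in Hepes buffer, pH 7.4, containing CaCl2, MgCl₂, OA and Tween20.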

rat calcitonin receptor [3] = target: T1, rat calcitonin receptor; test: ratio of binding IC50 at rat calcitonin receptor to IC50 at rat amylin receptor (reference)

| Binder | IC50 (rat calcitonin receptor [1]) [nM] | Ratio hCT/hAmylin binding [2] | Ratio rCT/rAmylin binding (rat calcitonin receptor [3]) |
| --- | --- | --- | --- |
| B1 | 140 | 146 | 49.7 |
| B2 | 35.5 | 46.1 | 21.5 |
